The target of test [1] is Dictyostelium discoideum p97, purified recombinant wild-type (D. discoideum) (UniProt P90532). Put plainly: native gel or EMSA; blue native PAGE (BN-PAGE) of the affinity purified recombinant protein, Coomassie staining; SDS-PAGE beside it; monomers to hexamer. (In general: A gel shift assay detects complexes by their altered migration in electrophoresis.)
Test [2] deals with Dictyostelium discoideum p97^R155C, purified recombinant (D. discoideum) (UniProt P90532). Described as above.

On to “Dictyostelium discoideum p97, purified recombinant wild-type (from UniProt P90532 1-793) (natural protein)”, for which, in test [1], the stoichiometry N worked out at 6. Turning to “Dictyostelium discoideum p97^R155C, purified recombinant (from UniProt P90532 1-793) (natural protein)”, the stoichiometry N in test [2] was found to be 6.

By stoichiometry N is commonly meant the number of molecules, sites or subunits per partner or assembly.

(Values after PMC3463532.)
